Test results published in patent US20200199241A1 (Chugai, published 2020).

B1: IgG1-F852 (antibody)
heavy: QVQLQESGPGLVKPSETLSLTCAVSGHSISHDHAWSWVRQPPGEGLEWIGFISYSGITNYNPSLQGRVTISRDNSKNTLYLQMNSLRAEDTAVYYCARSLARTTAMDYWGEGTLVTVSSASTKGPSVFPLAPSSKSTSGGTAALGCLVKDYFPEPVTVSWNSGALTSGVHTFPAVLQSSGLYSLSSVVTVPSSSLGTQTYICNVNHKPSNTKVDKKVEPKSCDKTHTCPPCPAPELLGGPSVFLFPPKPKDTLYISRTPEVTCVVVDVSHEDPEVKFNWYVGGVEVHNAKTKPREEQYNSTYRVVSVLTVLHQDWLNGKEYKCKVSNKALPAPIEKTISKAKGQPREPQVYTLPPSRDELTKNQVSLTCLVKGFYPSDIAVEWESNGQPENNYKTTPPVLDSDGSFFLYSKLTVDKSRWQQGNVFSCSVMHEALHYHYTQKSLSLSP
light: not shown
notes: EU numbering; copies: 2 + 2
B2: IgG1-F867 (antibody)
heavy: QVQLQESGPGLVKPSETLSLTCAVSGHSISHDHAWSWVRQPPGEGLEWIGFISYSGITNYNPSLQGRVTISRDNSKNTLYLQMNSLRAEDTAVYYCARSLARTTAMDYWGEGTLVTVSSASTKGPSVFPLAPSSKSTSGGTAALGCLVKDYFPEPVTVSWNSGALTSGVHTFPAVLQSSGLYSLSSVVTVPSSSLGTQTYICNVNHKPSNTKVDKKVEPKSCDKTHTCPPCPAPELLGGPSVFLFPPKPKDTLYISRTPEVTCVVVDVSHEDPEVKFNWYVDGVEVHNAKTKPREEQYNSTYRVVSVLTVLHQDWLNGKEYKCKVSNKALPAPIEKTISKAKGQPREPQVYTLPPSRDELTKNQVSLTCLVKGFYPSDIAVEWESAGQPEANYKTTPPVLDSDGSFFLYSKLTVDKSRWQQGNVFSCSVMHEALHYHYTQKSLSLSP
light: not shown
notes: EU numbering; copies: 2 + 2
B3: IgG1-F863 (antibody)
heavy: QVQLQESGPGLVKPSETLSLTCAVSGHSISHDHAWSWVRQPPGEGLEWIGFISYSGITNYNPSLQGRVTISRDNSKNTLYLQMNSLRAEDTAVYYCARSLARTTAMDYWGEGTLVTVSSASTKGPSVFPLAPSSKSTSGGTAALGCLVKDYFPEPVTVSWNSGALTSGVHTFPAVLQSSGLYSLSSVVTVPSSSLGTQTYICNVNHKPSNTKVDKKVEPKSCDKTHTCPPCPAPELLGGPSVFLFPPKPKDTLYISRTPEVTCVVVDVSHEDPEVKFNWYVTGVEVHNAKTKPREEQYNSTYRVVSVLTVLHQDWLNGKEYKCKVSNKALPAPIEKTISKAKGQPREPQVYTLPPSRDELTKNQVSLTCLVKGFYPSDIAVEWESNGQPENNYKTTPPVLDSDGSFFLYSKLTVDKSRWQQGNVFSCSVMHEALHYHYTQKSLSLSP
light: not shown
notes: EU numbering; copies: 2 + 2
B4: IgG1-F860 (antibody)
heavy: QVQLQESGPGLVKPSETLSLTCAVSGHSISHDHAWSWVRQPPGEGLEWIGFISYSGITNYNPSLQGRVTISRDNSKNTLYLQMNSLRAEDTAVYYCARSLARTTAMDYWGEGTLVTVSSASTKGPSVFPLAPSSKSTSGGTAALGCLVKDYFPEPVTVSWNSGALTSGVHTFPAVLQSSGLYSLSSVVTVPSSSLGTQTYICNVNHKPSNTKVDKKVEPKSCDKTHTCPPCPAPELLGGPSVFLFPPKPKDTLYISRTPEVTCVVVDVSHEDPEVKFNWYVQGVEVHNAKTKPREEQYNSTYRVVSVLTVLHQDWLNGKEYKCKVSNKALPAPIEKTISKAKGQPREPQVYTLPPSRDELTKNQVSLTCLVKGFYPSDIAVEWESNGQPENNYKTTPPVLDSDGSFFLYSKLTVDKSRWQQGNVFSCSVMHEALHYHYTQKSLSLSP
light: not shown
notes: EU numbering; copies: 2 + 2
B5: IgG1-F853 (antibody)
heavy: QVQLQESGPGLVKPSETLSLTCAVSGHSISHDHAWSWVRQPPGEGLEWIGFISYSGITNYNPSLQGRVTISRDNSKNTLYLQMNSLRAEDTAVYYCARSLARTTAMDYWGEGTLVTVSSASTKGPSVFPLAPSSKSTSGGTAALGCLVKDYFPEPVTVSWNSGALTSGVHTFPAVLQSSGLYSLSSVVTVPSSSLGTQTYICNVNHKPSNTKVDKKVEPKSCDKTHTCPPCPAPELLGGPSVFLFPPKPKDTLYISRTPEVTCVVVDVSHEDPEVKFNWYVHGVEVHNAKTKPREEQYNSTYRVVSVLTVLHQDWLNGKEYKCKVSNKALPAPIEKTISKAKGQPREPQVYTLPPSRDELTKNQVSLTCLVKGFYPSDIAVEWESNGQPENNYKTTPPVLDSDGSFFLYSKLTVDKSRWQQGNVFSCSVMHEALHYHYTQKSLSLSP
light: not shown
notes: EU numbering; copies: 2 + 2
B6: IgG1-F861 (antibody)
heavy: QVQLQESGPGLVKPSETLSLTCAVSGHSISHDHAWSWVRQPPGEGLEWIGFISYSGITNYNPSLQGRVTISRDNSKNTLYLQMNSLRAEDTAVYYCARSLARTTAMDYWGEGTLVTVSSASTKGPSVFPLAPSSKSTSGGTAALGCLVKDYFPEPVTVSWNSGALTSGVHTFPAVLQSSGLYSLSSVVTVPSSSLGTQTYICNVNHKPSNTKVDKKVEPKSCDKTHTCPPCPAPELLGGPSVFLFPPKPKDTLYISRTPEVTCVVVDVSHEDPEVKFNWYVRGVEVHNAKTKPREEQYNSTYRVVSVLTVLHQDWLNGKEYKCKVSNKALPAPIEKTISKAKGQPREPQVYTLPPSRDELTKNQVSLTCLVKGFYPSDIAVEWESNGQPENNYKTTPPVLDSDGSFFLYSKLTVDKSRWQQGNVFSCSVMHEALHYHYTQKSLSLSP
light: not shown
notes: EU numbering; copies: 2 + 2
B7: IgG1-F862 (antibody)
heavy: QVQLQESGPGLVKPSETLSLTCAVSGHSISHDHAWSWVRQPPGEGLEWIGFISYSGITNYNPSLQGRVTISRDNSKNTLYLQMNSLRAEDTAVYYCARSLARTTAMDYWGEGTLVTVSSASTKGPSVFPLAPSSKSTSGGTAALGCLVKDYFPEPVTVSWNSGALTSGVHTFPAVLQSSGLYSLSSVVTVPSSSLGTQTYICNVNHKPSNTKVDKKVEPKSCDKTHTCPPCPAPELLGGPSVFLFPPKPKDTLYISRTPEVTCVVVDVSHEDPEVKFNWYVSGVEVHNAKTKPREEQYNSTYRVVSVLTVLHQDWLNGKEYKCKVSNKALPAPIEKTISKAKGQPREPQVYTLPPSRDELTKNQVSLTCLVKGFYPSDIAVEWESNGQPENNYKTTPPVLDSDGSFFLYSKLTVDKSRWQQGNVFSCSVMHEALHYHYTQKSLSLSP
light: not shown
notes: EU numbering; copies: 2 + 2
B8: IgG1-F855 (antibody)
heavy: QVQLQESGPGLVKPSETLSLTCAVSGHSISHDHAWSWVRQPPGEGLEWIGFISYSGITNYNPSLQGRVTISRDNSKNTLYLQMNSLRAEDTAVYYCARSLARTTAMDYWGEGTLVTVSSASTKGPSVFPLAPSSKSTSGGTAALGCLVKDYFPEPVTVSWNSGALTSGVHTFPAVLQSSGLYSLSSVVTVPSSSLGTQTYICNVNHKPSNTKVDKKVEPKSCDKTHTCPPCPAPELLGGPSVFLFPPKPKDTLYISRTPEVTCVVVDVSHEDPEVKFNWYVKGVEVHNAKTKPREEQYNSTYRVVSVLTVLHQDWLNGKEYKCKVSNKALPAPIEKTISKAKGQPREPQVYTLPPSRDELTKNQVSLTCLVKGFYPSDIAVEWESNGQPENNYKTTPPVLDSDGSFFLYSKLTVDKSRWQQGNVFSCSVMHEALHYHYTQKSLSLSP
light: not shown
notes: EU numbering; copies: 2 + 2
B9: IgG1-F858 (antibody)
heavy: QVQLQESGPGLVKPSETLSLTCAVSGHSISHDHAWSWVRQPPGEGLEWIGFISYSGITNYNPSLQGRVTISRDNSKNTLYLQMNSLRAEDTAVYYCARSLARTTAMDYWGEGTLVTVSSASTKGPSVFPLAPSSKSTSGGTAALGCLVKDYFPEPVTVSWNSGALTSGVHTFPAVLQSSGLYSLSSVVTVPSSSLGTQTYICNVNHKPSNTKVDKKVEPKSCDKTHTCPPCPAPELLGGPSVFLFPPKPKDTLYISRTPEVTCVVVDVSHEDPEVKFNWYVNGVEVHNAKTKPREEQYNSTYRVVSVLTVLHQDWLNGKEYKCKVSNKALPAPIEKTISKAKGQPREPQVYTLPPSRDELTKNQVSLTCLVKGFYPSDIAVEWESNGQPENNYKTTPPVLDSDGSFFLYSKLTVDKSRWQQGNVFSCSVMHEALHYHYTQKSLSLSP
light: not shown
notes: EU numbering; copies: 2 + 2

What follows are binders tested against T1, soluble human FcRn complexed with β2-microglobulin (human, UniProt P61769 21-119, limits assumed) (assay: Biacore SPR, pH 7.0;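 note: test antibodies captured on a Protein L chip with human FcRn flowed over as analyte, KD obtained as the ratio of dissociation to association rate constants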).
T1 construct: also called hFcRn
T1 sequence (chain, as listed by the source limits assumed, chain 1 of 2): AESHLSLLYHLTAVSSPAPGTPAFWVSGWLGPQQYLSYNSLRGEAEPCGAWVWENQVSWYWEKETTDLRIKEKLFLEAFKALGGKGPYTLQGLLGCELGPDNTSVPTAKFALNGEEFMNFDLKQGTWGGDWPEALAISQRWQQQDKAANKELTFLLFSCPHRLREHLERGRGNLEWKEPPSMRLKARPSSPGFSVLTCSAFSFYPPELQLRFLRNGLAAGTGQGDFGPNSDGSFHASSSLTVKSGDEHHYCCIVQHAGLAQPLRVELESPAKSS
T1 sequence (P61769 21-119 limits assumed, chain 2 of 2): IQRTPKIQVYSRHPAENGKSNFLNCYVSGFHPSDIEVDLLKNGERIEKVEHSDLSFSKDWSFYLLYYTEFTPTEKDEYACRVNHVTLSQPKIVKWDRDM

Row | Binder | Kd
1 | B1 | 330 nM
2 | B2 | 280 nM
3 | B3 | 270 nM
4 | B4 | 330 nM
5 | B5 | 320 nM
6 | B6 | 320 nM
7 | B7 | 300 nM
8 | B8 | 320 nM
9 | B9 | 320 nM
